The target of assay [1] is T1, CD33-Fc (UniProt P20138 18-259).
T1 construct: Negative control construct; not shown: Fc part, detected with goat anti-human Fc antibodies
The experiment in a line: blot overlay.

For assay [2], the target named is T2, CEACAM1-Fc soluble receptor construct (human, UniProt P13688 35-320).
T2 construct: also called CC1-Fc; human CEACAM1-Fc; not shown: Fc part, detected with goat anti-human Fc antibodies
T2 sequence: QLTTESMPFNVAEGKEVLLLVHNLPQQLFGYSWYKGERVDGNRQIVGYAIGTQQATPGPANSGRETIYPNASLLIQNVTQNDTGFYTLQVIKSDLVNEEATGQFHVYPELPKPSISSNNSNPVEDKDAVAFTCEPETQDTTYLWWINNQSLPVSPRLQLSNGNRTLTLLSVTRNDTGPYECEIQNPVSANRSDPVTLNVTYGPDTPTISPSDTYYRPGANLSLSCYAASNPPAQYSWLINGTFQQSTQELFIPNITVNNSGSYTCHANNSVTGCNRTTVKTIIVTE
The experiment in a line: Western blot overlay with CEACAM1-Fc.

The target in assay [3] is T1, CD33-Fc. Kind of assay: dot blot overlay of whole bacteria with soluble receptor.
The target of assay [4] is T2, CEACAM1-Fc soluble receptor construct. Kind of assay: assay not named.

T1 sequence (P20138 18-259 limits assumed): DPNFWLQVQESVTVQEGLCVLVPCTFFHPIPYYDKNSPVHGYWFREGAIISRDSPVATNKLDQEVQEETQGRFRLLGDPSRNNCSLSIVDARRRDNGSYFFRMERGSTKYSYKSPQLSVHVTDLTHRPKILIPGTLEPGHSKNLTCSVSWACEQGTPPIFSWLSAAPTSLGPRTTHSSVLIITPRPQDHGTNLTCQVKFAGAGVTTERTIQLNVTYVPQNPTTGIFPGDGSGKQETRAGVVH

B1: recombinant UspA1 fragment D-8 (peptide)
chain: ASSANTDRIATAELGIAENKKDAQIAKAQANENKDGIAKNQADIQLHDKKITNLGILHSMVARAVGNNTQGVATNKADIAKNQADIANNIKNIYELAQQQDQHSSDIKTLAKVSAANTDRIAKNKAEADASFETLTKNQNTLIEQGEALVEQNKAINQELEGFAAHADVQDKQILQNQADITTNKTAIEQNINRTVANGFEIEKNKAGIATNKQELILQNDRLNRINETNNHQDQKIDQLGYALKEQGQHFNNRISAVERQTAGGIANAIAIATLPSPSRAGEHHVLFGSGYHNGQAAVSLGAAGLSDTGKSTYKIGLSWSDAGGLSGGVGGSYRWK
notes: Limits deduced: D = 527 (see D-7), 8 = 863 (from 6-8, E659-K863); also called D-8 polypeptide; not shown: His tag from the pQE30 vector
On to B1, for which the binding result in assay [1] was “no binding”.

B2: recombinant UspA1 fragment 6-8 (residues E659-K863 of UspA1 of MX2) (peptide)
chain: ETLTKNQNTLIEQGEALVEQNKAINQELEGFAAHADVQDKQILQNQADITTNKTAIEQNINRTVANGFEIEKNKAGIATNKQELILQNDRLNRINETNNHQDQKIDQLGYALKEQGQHFNNRISAVERQTAGGIANAIAIATLPSPSRAGEHHVLFGSGYHNGQAAVSLGAAGLSDTGKSTYKIGLSWSDAGGLSGGVGGSYRWK
notes: also called P6-P8; not shown: His tag from the pQE30 vector
In the case of B2, in assay [2], the binding result was “no binding”.

B3: UspA1 protein of Moraxella catarrhalis strain MX2 (ATCC 25238) (ligand)
chain: QKVGKATNKISGGDNNTANGTYLTIGGGDYNKTKGRYSTIGGGLFNEATNEYSTIGSGGYNKAKGRYSTIGGGGYNEATNQYSTIGGGDNNTAKGRYSTIGGGGYNEATIENSTVGGGGYNQAKGRNSTVAGGYNNEATGTDSTIAGGRKNQATGKGSFAAGIDNKANADNAVALGNKNTIEGENSVAIGSNNTVKKGQQNVFILGSNTDTTNAQNGSVLLGHNTAGKAATIVNSAEVGGLSLTGFAGASKTGNGTVSVGKKGKERQIVHVGAGEISDTSTDAVNGSQLHALATVVAQNKADIKDLDDEVGLLGEEINSLEGEIFNNQDAIAKNQADIKTLESNVEEGLLDLSGRLIDQKADIDNNINNIYELAQQQDQHSSDIKTLKNNVEEGLLDLSGRLIDQKADLTKDIKALESNVEEGLLDLSGRLIDQKADIAKNQADIAQNQTDIQDLAAYNELQDAYAKQQTEAIDALNKASSANTDRIATAELGIAENKKDAQIAKAQANENKDGIAKNQADIQLHDKKITNLGILHSMVARAVGNNTQGVATNKADIAKNQADIANNIKNIYELAQQQDQHSSDIKTLAKVSAANTDRIAKNKAEADASFETLTKNQNTLIEQGEALVEQNKAINQELEGFAAHADVQDKQILQNQADITTNKTAIEQNINRTVANGFEIEKNKAGIATNKQELILQNDRLNRINETNNHQDQKIDQLGYALKEQGQHFNNRISAVERQTAGGIANAIAIATLPSPSRAGEHHVLFGSGYHNGQAAVSLGAAGLSDTGKSTYKIGLSWSDAGGLSGGVGGSYRWK
notes: Tested on whole bacteria or in whole cell lysates; migrates at >200 kDa unheated and at circa 92 kDa after boiling; also called MX2 UspA1
Regarding B3, the binding result in assay [3] is given as “no binding (tested: 1-2 µg ml^-1)”.

B4: peptide D-8 with deletion of the region 571-632 (D-8Δ) (peptide)
chain: ASSANTDRIATAELGIAENKKDAQIAKAQANENKDGIAKNQADIIKTLAKVSAANTDRIAKNKAEADASFETLTKNQNTLIEQGEALVEQNKAINQELEGFAAHADVQDKQILQNQADITTNKTAIEQNINRTVANGFEIEKNKAGIATNKQELILQNDRLNRINETNNHQDQKIDQLGYALKEQGQHFNNRISAVERQTAGGIANAIAIATLPSPSRAGEHHVLFGSGYHNGQAAVSLGAAGLSDTGKSTYKIGLSWSDAGGLSGGVGGSYRWK
notes: Outer limits as deduced for D-8 (527-863); the deletion 571-632 is printed; also called control peptide; not shown: His tag from the pQE30 vector
B4: in assay [4], the binding result was “no binding”.

B5: N-terminal recombinant MX2 peptide consisting of amino acids 1 to 449 (peptide)
chain: MNKIYKVKKNAAGHLVACSEFAKGHTKKAVLGSLLIVGILGMATTASAQKVGKATNKISGGDNNTANGTYLTIGGGDYNKTKGRYSTIGGGLFNEATNEYSTIGSGGYNKAKGRYSTIGGGGYNEATNQYSTIGGGDNNTAKGRYSTIGGGGYNEATIENSTVGGGGYNQAKGRNSTVAGGYNNEATGTDSTIAGGRKNQATGKGSFAAGIDNKANADNAVALGNKNTIEGENSVAIGSNNTVKKGQQNVFILGSNTDTTNAQNGSVLLGHNTAGKAATIVNSAEVGGLSLTGFAGASKTGNGTVSVGKKGKERQIVHVGAGEISDTSTDAVNGSQLHALATVVAQNKADIKDLDDEVGLLGEEINSLEGEIFNNQDAIAKNQADIKTLESNVEEGLLDLSGRLIDQKADIDNNINNIYELAQQQDQHSSDIKTLKNNVEEGLLDLSGR
On to B5, for which the binding result in assay [4] is given as “no binding”.

These data come from patent publication US20100168002A1 (UNIVERSITY OF BRISTOL, published 2010).
